Biological target: natural affinity purified heavy chain class I K d molecules
Experiment: binding inhibition experiment with radiolabelled ligands

affinity, fold lower than the human β2-microglobulin: 5 times lower
Substance: Recombinant murine β2-microglobulin
